Data: patent US20160312212A1 (ROCHE SEQUENCING SOLUTIONS, published 2016)
Where no end group is shown, it is not given here. The star is where a group is joined. Biotin = O=C1N[C@H]2[C@H](CS[C@H]2CCCCC(=O)*)N1

Target: Thrombin (UniProt P00734 328-622)
Assay: SPR (Biacore X100), multiple-cycle kinetics; biotinylated peptide on streptavidin chip, thrombin 0 to 50 nM as analyte
Protocol: Two peptides were further prepared (synthesized and purified by Peptide 2.0) with the following sequences: a) Biotin—[…] GCG (SEQ ID NO:367) and b) Biotin—[…] (SEQ ID NO:368). The binding affinities of each peptide towards thrombin were tested on a Biacore X100 system.
In brief, 50 ul of 100 ug/ml of streptavidin (in 10 mM NaAc, 0.1 mM EDTA, 1 mM NaCl, 1 mM DTT pH 4.6) was immobilized onto a sensor chip CM5 that was pre-activated with NHS/EDC at a flow rate of 5 μl/min. After ethanolamine deactivation, biotinylated peptides (10 ng/ml) were injected and captured. Following the standard protocol for multiple-cycle kinetics, a series of injections of thrombin were then performed at 0 nM, 3.125 nM, 6.25 nM, 12.5 nM, 25 nM and 50 nM. After each injection, the sensor surface was regenerated for 2 min with 10 mM Glycine-HCl, pH 1.7 (from GE). The sensogram was recorded (see FIG. 5) and kinetic constants were derived by global fitting to a 1:1 Langmuir binding model using the BIAcore X100 Evaluation Software.

- fold change in KD against the linear peptide without cow antibody scaffold sequences (SEQ ID NO:368): > 40 fold
B1: Biotin-GCTSVHQETKKYQSRDPGRLIFQSSYTYNYEHVDVWGCG (designed binder)
peptide: Biotin-GCTSVHQETKKYQSRDPGRLIFQSSYTYNYEHVDVWGCG
modifications: cysteine pairing not given here
notes: Synthetic peptide (Peptide 2.0), captured on a streptavidin CM5 chip; also called peptide a)
